Tests used:
Assay in all cases: cell-based or functional assay
[1] = target: CSR 82DH.TF2z
[2] = target: CSR 2DH.2TF2z WT
[3] = target: CSR 2DH.TF2z
[4] = target: CSR 82DH.2TF2z WT
[5] = target: CSR 01 CD2.DH.z
Chain of CSR 01 CD2.DH.z (chain, as listed by the source): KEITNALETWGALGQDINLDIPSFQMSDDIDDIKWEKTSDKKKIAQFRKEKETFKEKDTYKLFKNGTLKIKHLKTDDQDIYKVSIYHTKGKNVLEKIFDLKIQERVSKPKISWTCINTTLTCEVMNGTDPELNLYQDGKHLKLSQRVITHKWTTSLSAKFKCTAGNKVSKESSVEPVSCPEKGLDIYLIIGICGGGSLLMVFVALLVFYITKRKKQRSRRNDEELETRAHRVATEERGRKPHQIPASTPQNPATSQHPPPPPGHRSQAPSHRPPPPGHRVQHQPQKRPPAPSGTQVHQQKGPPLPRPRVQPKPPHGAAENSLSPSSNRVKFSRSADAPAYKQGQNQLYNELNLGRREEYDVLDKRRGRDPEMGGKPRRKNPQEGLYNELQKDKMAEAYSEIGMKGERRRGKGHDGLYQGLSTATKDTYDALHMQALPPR

Chain of CSR 82DH.TF2z (chain, as listed by the source): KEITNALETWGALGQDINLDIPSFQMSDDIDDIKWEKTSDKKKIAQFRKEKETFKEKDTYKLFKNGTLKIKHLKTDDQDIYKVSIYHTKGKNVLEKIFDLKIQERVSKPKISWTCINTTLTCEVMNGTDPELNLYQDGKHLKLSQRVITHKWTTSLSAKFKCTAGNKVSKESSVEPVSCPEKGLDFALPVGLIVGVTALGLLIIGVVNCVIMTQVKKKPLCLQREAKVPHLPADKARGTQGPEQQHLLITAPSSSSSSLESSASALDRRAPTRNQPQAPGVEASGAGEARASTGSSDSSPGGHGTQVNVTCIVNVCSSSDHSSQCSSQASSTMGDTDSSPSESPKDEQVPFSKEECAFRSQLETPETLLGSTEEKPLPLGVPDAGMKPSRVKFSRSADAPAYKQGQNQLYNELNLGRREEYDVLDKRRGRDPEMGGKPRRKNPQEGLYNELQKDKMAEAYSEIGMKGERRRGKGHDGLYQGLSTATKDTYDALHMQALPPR
Chain of CSR 82DH.2TF2z WT (chain, as listed by the source): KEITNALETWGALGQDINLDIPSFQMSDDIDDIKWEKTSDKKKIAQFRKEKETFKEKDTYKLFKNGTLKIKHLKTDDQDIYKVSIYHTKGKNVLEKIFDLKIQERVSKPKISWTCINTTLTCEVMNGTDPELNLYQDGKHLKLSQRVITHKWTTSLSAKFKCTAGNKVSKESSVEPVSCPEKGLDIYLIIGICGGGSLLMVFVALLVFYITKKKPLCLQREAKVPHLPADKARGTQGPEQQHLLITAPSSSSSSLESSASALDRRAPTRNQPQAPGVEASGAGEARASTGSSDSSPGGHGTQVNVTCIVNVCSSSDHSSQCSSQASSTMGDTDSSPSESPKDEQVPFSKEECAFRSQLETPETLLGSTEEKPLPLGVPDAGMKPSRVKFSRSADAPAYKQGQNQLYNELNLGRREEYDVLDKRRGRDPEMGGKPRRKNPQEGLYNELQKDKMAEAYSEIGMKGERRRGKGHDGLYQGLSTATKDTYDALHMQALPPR
Chain of CSR 2DH.TF2z (chain, as listed by the source): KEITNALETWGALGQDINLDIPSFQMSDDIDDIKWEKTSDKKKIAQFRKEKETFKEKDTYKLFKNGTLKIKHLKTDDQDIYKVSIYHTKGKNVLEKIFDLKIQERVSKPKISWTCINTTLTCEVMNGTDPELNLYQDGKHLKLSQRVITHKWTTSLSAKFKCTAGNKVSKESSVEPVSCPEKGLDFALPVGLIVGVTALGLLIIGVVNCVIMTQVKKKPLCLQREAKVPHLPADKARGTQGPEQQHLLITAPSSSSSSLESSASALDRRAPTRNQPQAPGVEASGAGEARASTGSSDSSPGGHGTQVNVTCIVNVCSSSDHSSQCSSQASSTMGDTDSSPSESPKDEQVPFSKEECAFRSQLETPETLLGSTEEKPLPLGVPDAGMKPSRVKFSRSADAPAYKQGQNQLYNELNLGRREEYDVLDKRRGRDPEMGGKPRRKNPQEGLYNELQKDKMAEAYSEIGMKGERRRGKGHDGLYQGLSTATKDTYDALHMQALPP
Chain of CSR 2DH.2TF2z WT (chain, as listed by the source): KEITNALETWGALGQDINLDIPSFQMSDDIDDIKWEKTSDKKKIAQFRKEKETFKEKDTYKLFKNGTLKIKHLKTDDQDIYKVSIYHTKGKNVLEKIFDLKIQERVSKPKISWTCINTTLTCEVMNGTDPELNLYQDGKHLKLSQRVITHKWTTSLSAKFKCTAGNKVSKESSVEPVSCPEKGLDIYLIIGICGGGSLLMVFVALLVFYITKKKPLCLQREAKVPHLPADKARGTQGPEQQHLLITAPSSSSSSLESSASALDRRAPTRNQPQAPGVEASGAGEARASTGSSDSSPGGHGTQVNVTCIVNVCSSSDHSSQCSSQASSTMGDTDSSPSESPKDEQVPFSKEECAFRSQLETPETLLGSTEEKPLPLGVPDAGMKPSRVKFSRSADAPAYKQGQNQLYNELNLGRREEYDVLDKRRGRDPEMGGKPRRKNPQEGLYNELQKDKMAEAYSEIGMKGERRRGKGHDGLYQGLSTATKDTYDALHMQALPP

Substance: Immunocult Human CD2 T cell activator (StemCell Technologies)
- pSTAT5 Expression post activation in Treg cells (% of live cells), +16 hours, Donor 4 (% of live cells) [1]: 10.5
- pSTAT5 Expression post activation in Treg cells (% of live cells), +24 hours, Donor 4 (% of live cells) [1]: 11.6
- pSTAT5 Expression post activation in pan T cells (% of live cells), +4 hours, Donor 1 (% of live cells) [1]: 5.49
- pSTAT5 Expression post activation in pan T cells (% of live cells), +4 hours, Donor 2 (% of live cells) [1]: 5.09
- pSTAT5 Expression post activation in pan T cells (% of live cells), +24 hours, Donor 1 (% of live cells) [1]: 6.16
- pSTAT5 Expression post activation in pan T cells (% of live cells), +24 hours, Donor 2 (% of live cells) [1]: 10.1
- pSTAT5 Expression post activation in Treg cells (% of live cells), +16 hours, Donor 4 [2]: 13.9%
- pSTAT5 Expression post activation in Treg cells (% of live cells), +16 hours, Donor 5 (% of live cells) [2]: 10.3
- pSTAT5 Expression post activation in Treg cells (% of live cells), +24 hours, Donor 4 (% of live cells) [2]: 15.8
- pSTAT5 Expression post activation in Treg cells (% of live cells), +24 hours, Donor 5 (% of live cells) [2]: 13.5
- pSTAT5 Expression post activation in pan T cells (% of live cells), +4 hours, Donor 1 [2]: 4.73%
- pSTAT5 Expression post activation in pan T cells (% of live cells), +4 hours, Donor 2 (% of live cells) [2]: 2.78
- pSTAT5 Expression post activation in pan T cells (% of live cells), +24 hours, Donor 1 (% of live cells) [2]: 8.34
- pSTAT5 Expression post activation in pan T cells (% of live cells), +24 hours, Donor 2 (% of live cells) [2]: 15.8
- pSTAT5 Expression post activation in Treg cells (% of live cells), +16 hours, Donor 4 (% of live cells) [3]: 9.24
- pSTAT5 Expression post activation in Treg cells (% of live cells), +24 hours, Donor 4 (% of live cells) [3]: 8.64
- pSTAT5 Expression post activation in pan T cells (% of live cells), +4 hours, Donor 1 (% of live cells) [3]: 5.43
- pSTAT5 Expression post activation in pan T cells (% of live cells), +4 hours, Donor 2 [3]: 4.2%
- pSTAT5 Expression post activation in pan T cells (% of live cells), +24 hours, Donor 1 [3]: 5.67%
- pSTAT5 Expression post activation in pan T cells (% of live cells), +24 hours, Donor 2 [3]: 5.17%
- pSTAT5 Expression post activation in Treg cells (% of live cells), +16 hours, Donor 4 [4]: 13.3%
- pSTAT5 Expression post activation in Treg cells (% of live cells), +16 hours, Donor 5 (% of live cells) [4]: 7.45
- pSTAT5 Expression post activation in Treg cells (% of live cells), +24 hours, Donor 4 [4]: 13.6%
- pSTAT5 Expression post activation in Treg cells (% of live cells), +24 hours, Donor 5 [4]: 9.16%
- pSTAT5 Expression post activation in pan T cells (% of live cells), +4 hours, Donor 1 [4]: 3.24%
- pSTAT5 Expression post activation in pan T cells (% of live cells), +4 hours, Donor 2 (% of live cells) [4]: 11
- pSTAT5 Expression post activation in pan T cells (% of live cells), +24 hours, Donor 1 (% of live cells) [4]: 5.5
- pSTAT5 Expression post activation in pan T cells (% of live cells), +24 hours, Donor 2 [4]: 6.36%
- pSTAT5 Expression post activation in Treg cells (% of live cells), +16 hours, Donor 4 [5]: 7.1%
- pSTAT5 Expression post activation in Treg cells (% of live cells), +16 hours, Donor 5 [5]: 10.3%
- pSTAT5 Expression post activation in Treg cells (% of live cells), +24 hours, Donor 4 [5]: 10.5%
- pSTAT5 Expression post activation in Treg cells (% of live cells), +24 hours, Donor 5 [5]: 11.1%
- pSTAT5 Expression post activation in pan T cells (% of live cells), +4 hours, Donor 1 (% of live cells) [5]: 3.52
- pSTAT5 Expression post activation in pan T cells (% of live cells), +4 hours, Donor 2 (% of live cells) [5]: 41.1
- pSTAT5 Expression post activation in pan T cells (% of live cells), +24 hours, Donor 1 (% of live cells) [5]: 17.7
- pSTAT5 Expression post activation in pan T cells (% of live cells), +24 hours, Donor 2 [5]: 47.9%

From patent US20230121433A1
